Reference: paper PMC4119988 (British Journal of Cancer, 2014)

Biological target: OTU domain-containing protein 1 (Homo sapiens (Human)., UniProt Q5VV17)
Test: far-Western, overlay or dot blot

OTU domain-containing protein 1, sequence (Q5VV17 whole entry, the tested form may be a part): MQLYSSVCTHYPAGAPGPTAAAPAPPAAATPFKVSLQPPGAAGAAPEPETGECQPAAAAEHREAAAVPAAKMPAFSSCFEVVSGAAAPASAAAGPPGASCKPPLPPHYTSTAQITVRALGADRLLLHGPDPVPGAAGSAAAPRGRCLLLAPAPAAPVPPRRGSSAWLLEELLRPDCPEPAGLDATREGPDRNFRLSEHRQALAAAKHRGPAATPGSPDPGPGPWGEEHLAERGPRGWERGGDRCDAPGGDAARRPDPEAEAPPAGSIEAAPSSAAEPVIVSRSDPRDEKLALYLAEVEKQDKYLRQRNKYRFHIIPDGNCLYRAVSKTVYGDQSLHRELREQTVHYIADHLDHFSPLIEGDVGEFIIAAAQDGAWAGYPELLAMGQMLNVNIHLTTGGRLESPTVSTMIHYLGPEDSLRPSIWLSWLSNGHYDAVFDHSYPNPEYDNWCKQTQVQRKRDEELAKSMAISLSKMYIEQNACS

B1: scFv-C1 (scFv, V domains shown)
VH: EVQLLESGGGLVQPGGSLGLSCVASGFTFSDRWMSWVRQAPGKGLEWVAKIKQDGSEKLYVDSVKGRFTIPRDNSKNSLYLQMDSLRAEDTAVYYCVRGAGWLLDHWGQGILVTVSS
VL: SYVLTQPPSVSVAPGKTARITCGGNNIGRKSVHWYQQKPGQAPVLVVYDDSDRPSGIPERFSGSNSGNTATLTISRVEAGDEADYYCQVWDSSSDHSNWVFGGGTQLTVL
B1: binds.
